Blank lines part the entries; values can stand above or below the substance they belong to.
Experiments:
[1] = target: full length human TMPRSS6 on HEK293 cells (HEK293/hTMPRSS6) (human) (UniProt Q8IU80); assay: flow cytometry, HEK293 cells expressing target, secondary alone
[2] = target: full length mouse TMPRSS6 on HEK293 cells (HEK293/mTMPRSS6) (mouse) (UniProt Q9DBI0); assay: as above
[3] = target: catalytically inactive full length human TMPRSS6 on HEK293 cells (HEK293/hTMPRSS6 (S762A)) (human) (UniProt Q8IU80); assay: as above
[4] = target: full length cynomolgous monkey TMPRSS6 on HEK293 cells (HEK293/mfTMPRSS6) (cynomolgous monkey/Macaca fascicularis); assay: as above
[5] = target: full-length mouse TMPRSS6 with a C-terminal triple myc tag on HEK293.hHJV cells (HEK293.hHJV/3xMyc.mTMPRSS6) (mouse) (UniProt Q9DBI0); assay: cell-based or functional assay
[6] = target: full length human TMPRSS6 with a C-terminal triple myc tag on HEK293.hHJV cells (HEK293.hHJV/3xMyc.hTMPRSS6) (human) (UniProt Q8IU80); assay: cell-based or functional assay
[7] = target: full length human TMPRSS6 on HEK293 cells (HEK293/hTMPRSS6) (human) (UniProt Q8IU80); assay: flow cytometry, HEK293 cells expressing target
[8] = target: full length mouse TMPRSS6 on HEK293 cells (HEK293/mTMPRSS6) (mouse) (UniProt Q9DBI0); assay: flow cytometry, HEK293 cells expressing target
[9] = target: catalytically inactive full length human TMPRSS6 on HEK293 cells (HEK293/hTMPRSS6 (S762A)) (human) (UniProt Q8IU80); assay: flow cytometry, HEK293 cells expressing target
[10] = target: full length cynomolgous monkey TMPRSS6 on HEK293 cells (HEK293/mfTMPRSS6) (cynomolgous monkey/Macaca fascicularis); assay: flow cytometry, HEK293 cells expressing target

full length human TMPRSS6 on HEK293 cells (HEK293/hTMPRSS6) (human), sequence (Q8IU80 10-811 limits assumed): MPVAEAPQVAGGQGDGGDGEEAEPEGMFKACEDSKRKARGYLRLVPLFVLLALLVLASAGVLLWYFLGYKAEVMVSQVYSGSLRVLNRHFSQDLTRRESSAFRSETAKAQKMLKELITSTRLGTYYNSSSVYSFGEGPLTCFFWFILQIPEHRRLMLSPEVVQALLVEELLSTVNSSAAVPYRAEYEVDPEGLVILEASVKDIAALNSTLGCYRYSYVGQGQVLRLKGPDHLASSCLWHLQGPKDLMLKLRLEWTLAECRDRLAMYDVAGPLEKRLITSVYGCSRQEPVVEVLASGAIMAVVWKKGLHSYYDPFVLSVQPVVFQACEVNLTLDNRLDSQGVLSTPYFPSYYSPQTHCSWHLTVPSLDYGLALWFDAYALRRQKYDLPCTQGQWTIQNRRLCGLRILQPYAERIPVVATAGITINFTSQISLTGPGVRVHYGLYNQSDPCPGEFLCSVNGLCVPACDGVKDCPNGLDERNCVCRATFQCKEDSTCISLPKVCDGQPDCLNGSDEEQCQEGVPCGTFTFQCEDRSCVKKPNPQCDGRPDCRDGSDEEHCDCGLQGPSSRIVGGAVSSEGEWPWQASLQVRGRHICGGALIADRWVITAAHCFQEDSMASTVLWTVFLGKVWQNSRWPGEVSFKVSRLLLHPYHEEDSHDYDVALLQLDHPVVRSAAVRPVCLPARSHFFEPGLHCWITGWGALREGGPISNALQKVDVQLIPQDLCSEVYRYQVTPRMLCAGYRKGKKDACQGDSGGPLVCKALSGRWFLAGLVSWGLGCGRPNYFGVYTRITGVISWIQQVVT
catalytically inactive full length human TMPRSS6 on HEK293 cells (HEK293/hTMPRSS6 (S762A)) (human), sequence (Q8IU80 10-811 S762A): as the sequence (Q8IU80 10-811 limits assumed) above, with S753A counted along it
full length cynomolgous monkey TMPRSS6 on HEK293 cells (HEK293/mfTMPRSS6) (cynomolgous monkey/Macaca fascicularis), sequence (Q8IU80 other isoform, or with tags, fused parts or gaps): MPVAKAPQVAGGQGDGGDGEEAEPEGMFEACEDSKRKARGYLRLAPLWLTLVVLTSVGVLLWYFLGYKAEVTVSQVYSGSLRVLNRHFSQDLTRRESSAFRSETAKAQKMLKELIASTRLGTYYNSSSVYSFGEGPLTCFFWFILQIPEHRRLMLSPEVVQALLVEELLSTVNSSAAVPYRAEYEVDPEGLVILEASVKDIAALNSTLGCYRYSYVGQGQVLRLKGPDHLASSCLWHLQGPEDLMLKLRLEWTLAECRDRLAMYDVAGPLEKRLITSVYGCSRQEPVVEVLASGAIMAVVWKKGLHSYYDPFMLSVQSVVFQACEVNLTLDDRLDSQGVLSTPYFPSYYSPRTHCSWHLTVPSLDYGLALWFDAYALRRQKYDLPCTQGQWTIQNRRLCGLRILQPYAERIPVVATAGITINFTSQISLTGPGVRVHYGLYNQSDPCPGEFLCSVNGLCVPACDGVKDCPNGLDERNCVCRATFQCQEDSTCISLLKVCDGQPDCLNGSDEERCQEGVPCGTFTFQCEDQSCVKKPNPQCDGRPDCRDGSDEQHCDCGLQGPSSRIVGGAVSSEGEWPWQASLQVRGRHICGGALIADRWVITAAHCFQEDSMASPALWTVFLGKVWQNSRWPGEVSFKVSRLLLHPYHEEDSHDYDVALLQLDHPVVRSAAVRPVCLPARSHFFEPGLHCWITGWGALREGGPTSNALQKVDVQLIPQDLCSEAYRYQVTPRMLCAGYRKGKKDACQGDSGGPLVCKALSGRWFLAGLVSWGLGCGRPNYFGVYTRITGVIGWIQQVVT
full length mouse TMPRSS6 on HEK293 cells (HEK293/mTMPRSS6) (mouse), sequence (Q9DBI0 whole entry): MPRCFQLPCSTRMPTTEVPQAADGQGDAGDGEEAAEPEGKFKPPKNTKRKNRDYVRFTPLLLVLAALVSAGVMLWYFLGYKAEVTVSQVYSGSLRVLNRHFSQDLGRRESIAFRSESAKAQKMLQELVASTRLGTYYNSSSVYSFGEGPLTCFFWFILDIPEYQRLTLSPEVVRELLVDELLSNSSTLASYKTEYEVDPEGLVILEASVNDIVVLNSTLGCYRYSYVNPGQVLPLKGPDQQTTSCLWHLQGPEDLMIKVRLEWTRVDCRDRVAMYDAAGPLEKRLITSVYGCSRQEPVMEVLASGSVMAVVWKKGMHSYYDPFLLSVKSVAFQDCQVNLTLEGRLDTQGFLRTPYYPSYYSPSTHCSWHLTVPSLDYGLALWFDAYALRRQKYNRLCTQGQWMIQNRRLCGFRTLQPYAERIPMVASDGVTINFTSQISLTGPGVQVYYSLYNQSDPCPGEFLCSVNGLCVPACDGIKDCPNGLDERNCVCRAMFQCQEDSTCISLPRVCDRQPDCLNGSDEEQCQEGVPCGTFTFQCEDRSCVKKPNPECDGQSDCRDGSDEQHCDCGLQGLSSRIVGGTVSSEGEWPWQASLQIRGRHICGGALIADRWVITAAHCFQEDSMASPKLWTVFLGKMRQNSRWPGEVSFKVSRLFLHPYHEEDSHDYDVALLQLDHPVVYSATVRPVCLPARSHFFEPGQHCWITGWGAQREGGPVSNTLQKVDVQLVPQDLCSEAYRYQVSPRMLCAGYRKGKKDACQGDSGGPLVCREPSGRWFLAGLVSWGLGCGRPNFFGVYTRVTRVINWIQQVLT

Max. Fold Binding (fold over unstained control) [1]: 1
Max. Fold Binding (fold over unstained control) [2]: 1
Max. Fold Binding (fold over unstained control) [3]: 2
Max. Fold Binding (fold over unstained control) [4]: 1
Substance: Alexa Fluor-647 conjugated anti-human secondary antibody (Jackson ImmunoResearch #109-607-003)

Geometric Mean Fluorescence Intensity of cell surface hHJV [5]: 7750
Inhibition (%) of soluble hHJV release (ELISA) [5]: 5.2%
Median Fluorescence Intensity of cell surface hHJV [5]: 7230
Geometric Mean Fluorescence Intensity of cell surface hHJV [6]: 11700
Inhibition (%) of soluble hHJV release (ELISA) [6]: 15.7%
Median Fluorescence Intensity of cell surface hHJV [6]: 13000
Substance: Isotype Control (antibody)

Max. Fold Binding (fold over unstained control) [7]: 1
Max. Fold Binding (fold over unstained control) [8]: 1
Max. Fold Binding (fold over unstained control) [9]: 3
Max. Fold Binding (fold over unstained control) [10]: 1
Substance: hIgG Subclass Control (antibody)

— patent US20220411487A1
